Data from article doi:10.1101/382655.
Read-outs that look alike come from different tables or passages of the source.

Legend:
[1] = molecular target: T1, Integration host factor (IHF) (UniProt P0A6X7;P0A6Y1 2-99;1-94); assay: equilibrium fluorescence titration
[2] = molecular target: T1, Integration host factor (IHF); assay: fluorescence lifetime FRET
[3] = molecular target: T1, Integration host factor (IHF); assay: equilibrium fluorescence titration, extrapolated
[4] = molecular target: T1, Integration host factor (IHF); assay: fluorescence lifetime FRET; remark: listed apart in the source

T1 sequence (P0A6X7 2-99, chain 1 of 2): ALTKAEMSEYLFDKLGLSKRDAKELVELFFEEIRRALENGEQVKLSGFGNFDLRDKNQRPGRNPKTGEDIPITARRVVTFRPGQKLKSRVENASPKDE
T1 sequence (P0A6Y1 whole entry, chain 2 of 2): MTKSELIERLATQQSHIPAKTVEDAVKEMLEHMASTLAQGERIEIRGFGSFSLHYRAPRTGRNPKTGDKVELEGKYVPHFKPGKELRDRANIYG

B1: H1_CTloop (design I) (dsDNA)
DNA 1: TGGCCATGCAGTCACTATGAATCAACTACTTAGACC
DNA 2: TGGTCTAAGTAGTTGATTCATTCTGACTGCATGGCC
Kd [1]: 0.016 ± 0.003 µM

B2: H1 (design I) (dsDNA)
DNA 1: TGGCCATGCAGTCACTATGAATCAACTACTTAGACC
DNA 2: TGGTCTAAGTAGTTGATTCATAGTGACTGCATGGCC
binding result [2]: binds

B3: H' (design I) (dsDNA)
DNA 1: TGGCCAAAAAAGCATTGCTTATCAATTTGTTGCACC
DNA 2: TGGTGCAACAAATTGATAAGCAATGCTTTTTTGGCC
Kd [1]: 1.9 ± 0.1 µM
Kd [3]: 23 pM

B4: H'44A (design I) (dsDNA)
DNA 1: TGGCCAAAAAAGCATTGCTTATCAATTTGTAGCACC
DNA 2: TGGTGCTACAAATTGATAAGCAATGCTTTTTTGGCC
binding result [4]: binds

B5: H1 (design II) (dsDNA)
DNA 1: GGCCATGCAGTCACTATGAATCAACTACTTAGACC
DNA 2: GGTCTAAGTAGTTGATTCATAGTGACTGCATGGCC
modifications: 3' phosphate link on bottom strand (to dye)
Kd [1]: 1.99 ± 0.05 µM

B6: H' (design II) (dsDNA)
DNA 1: GGCCAAAAAAGCATTGCTTATCAATTTGTTGCACC
DNA 2: GGTGCAACAAATTGATAAGCAATGCTTTTTTGGCC
modifications: 3' phosphate link on bottom strand (to dye)
Kd [1]: 1.5 ± 0.2 µM
